Read-outs that look alike come from different tables or passages of the source.
Legend:
TrkB = TrkB (Homo sapiens, UniProt Q16620); assay: Luciferase reporter assay in MG87 cells expressing TrkB; type: cell-based; settings: BDNF 100 ng/ml, overnight
GFRα1-RET = GFRα1-RET (Homo sapiens, UniProt P07949); assay: RET phosphorylation assay; type: cell-based; settings: GDNF 200 ng/ml, 15 min; vehicle 0.66±0.22
RET = RET (Homo sapiens, UniProt P07949); assay: RET phosphorylation assay, GFP transfected MG87RET cells; type: cell-based; settings: GDNF in the absence of GFRα1
Chain of RET (P07949 29-1114): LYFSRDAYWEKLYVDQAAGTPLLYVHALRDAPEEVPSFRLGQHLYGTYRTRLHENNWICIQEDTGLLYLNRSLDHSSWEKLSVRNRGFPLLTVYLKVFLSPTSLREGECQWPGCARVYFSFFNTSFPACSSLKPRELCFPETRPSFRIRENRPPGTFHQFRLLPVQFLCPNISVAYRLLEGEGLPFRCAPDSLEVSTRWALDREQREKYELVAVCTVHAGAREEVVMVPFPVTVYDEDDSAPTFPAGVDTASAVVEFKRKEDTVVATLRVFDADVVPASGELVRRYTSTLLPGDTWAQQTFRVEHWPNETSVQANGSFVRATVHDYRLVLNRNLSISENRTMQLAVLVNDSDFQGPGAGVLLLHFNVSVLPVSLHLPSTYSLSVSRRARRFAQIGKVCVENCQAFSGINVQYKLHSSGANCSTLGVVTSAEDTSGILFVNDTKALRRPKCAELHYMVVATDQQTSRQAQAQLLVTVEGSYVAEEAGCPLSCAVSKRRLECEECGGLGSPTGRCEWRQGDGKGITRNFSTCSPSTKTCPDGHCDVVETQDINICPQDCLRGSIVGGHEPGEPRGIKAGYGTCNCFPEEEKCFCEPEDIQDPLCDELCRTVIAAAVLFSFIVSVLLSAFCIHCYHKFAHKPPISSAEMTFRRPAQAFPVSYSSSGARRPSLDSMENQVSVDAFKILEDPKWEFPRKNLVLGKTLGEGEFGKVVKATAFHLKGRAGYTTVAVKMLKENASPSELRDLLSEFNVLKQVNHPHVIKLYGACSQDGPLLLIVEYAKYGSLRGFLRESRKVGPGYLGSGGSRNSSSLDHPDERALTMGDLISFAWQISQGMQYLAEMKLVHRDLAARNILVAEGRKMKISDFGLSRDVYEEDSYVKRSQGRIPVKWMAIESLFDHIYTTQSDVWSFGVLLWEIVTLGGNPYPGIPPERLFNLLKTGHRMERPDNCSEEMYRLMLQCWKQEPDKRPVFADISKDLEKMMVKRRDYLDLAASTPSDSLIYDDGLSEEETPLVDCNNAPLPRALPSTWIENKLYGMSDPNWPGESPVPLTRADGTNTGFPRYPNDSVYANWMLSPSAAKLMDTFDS

AKT [1] = type: cell-based, murine; settings: GDNF 200 ng/ml; vehicle 0.91±0.20
ERK [2] = type: cell-based, murine; settings: GDNF 200 ng/ml; vehicle 0.56±0.13
[3] = system: wild-type midbrain dopamine neurons (TH-ir cells); assay: Survival assay for primary dopamine neurons, wild-type; type: cell-based, mouse; settings: GDNF 10 ng/ml ([…]), 5 days in vitro; vehicle 226.3±6.6
[4] = system: RET knockout midbrain dopamine neurons (TH-ir cells); assay: Survival assay for primary dopamine neurons, RET knockout; type: cell-based, mouse; settings: GDNF 10 ng/ml (≃[…]), 5th day in vitro
[5] = system: midbrain dopamine neurons exposed to MPP+; assay: Survival of MPP+-challenged dopamine neurons; type: cell-based, mouse; settings: GDNF 10 ng/ml (≃[…]) with MPP+ 2 μM, 48 hours; vehicle 267.7±20.4
6-OHDA lesioned rats [6] = assay: Amphetamine-induced rotational assay, unilateral 6-OHDA lesion; type: in vivo, rat; settings: GDNF 3 μg/24 h intrastriatal 14 days; 12 weeks post lesion
6-OHDA lesioned rats [7] = assay: TH-ir neurite number in the striatum; type: in vivo, rat; settings: BT44 0.1 and 0.3 μg/24 h, GDNF 3 μg/24 h; newly developed algorithm
6-OHDA lesioned rats [8] = assay: TH-ir cell bodies in the SNpc, CNN algorithm; type: in vivo, rat; settings: GDNF 3 μg/24 h
6-OHDA lesioned rats [9] = assay: DAT-ir cell bodies in the SNpc; type: in vivo, rat; settings: GDNF 3 μg/24 h
dopamine neurons = settings: cited from earlier work
6-OHDA lesioned rats [10] = assay: Optical density of TH-ir fibers in the dorsal striatum; settings: GDNF 3 μg/24 h; 12 weeks post lesion
6-OHDA lesioned rats [11] = assay: Optical density of DAT-ir fibers in the dorsal striatum; settings: GDNF 3 μg/24 h
GFRα2-RET = GFRα2-RET (Homo sapiens, UniProt P07949); assay: RET phosphorylation assay, GFRα2 transfected MG87RET cells; type: cell-based; settings: NRTN 200 ng/ml, 15 min; vehicle 0.86±0.15
Chain of GFRα2-RET (P07949 29-1114): as above

AKT [12] = type: cell-based, murine; settings: NRTN 200 ng/ml; vehicle 0.63±0.02
ERK [13] = type: cell-based, murine; settings: NRTN 200 ng/ml; vehicle 0.18±0.04

Chain of TrkB (Q16620 32-822, species assumed): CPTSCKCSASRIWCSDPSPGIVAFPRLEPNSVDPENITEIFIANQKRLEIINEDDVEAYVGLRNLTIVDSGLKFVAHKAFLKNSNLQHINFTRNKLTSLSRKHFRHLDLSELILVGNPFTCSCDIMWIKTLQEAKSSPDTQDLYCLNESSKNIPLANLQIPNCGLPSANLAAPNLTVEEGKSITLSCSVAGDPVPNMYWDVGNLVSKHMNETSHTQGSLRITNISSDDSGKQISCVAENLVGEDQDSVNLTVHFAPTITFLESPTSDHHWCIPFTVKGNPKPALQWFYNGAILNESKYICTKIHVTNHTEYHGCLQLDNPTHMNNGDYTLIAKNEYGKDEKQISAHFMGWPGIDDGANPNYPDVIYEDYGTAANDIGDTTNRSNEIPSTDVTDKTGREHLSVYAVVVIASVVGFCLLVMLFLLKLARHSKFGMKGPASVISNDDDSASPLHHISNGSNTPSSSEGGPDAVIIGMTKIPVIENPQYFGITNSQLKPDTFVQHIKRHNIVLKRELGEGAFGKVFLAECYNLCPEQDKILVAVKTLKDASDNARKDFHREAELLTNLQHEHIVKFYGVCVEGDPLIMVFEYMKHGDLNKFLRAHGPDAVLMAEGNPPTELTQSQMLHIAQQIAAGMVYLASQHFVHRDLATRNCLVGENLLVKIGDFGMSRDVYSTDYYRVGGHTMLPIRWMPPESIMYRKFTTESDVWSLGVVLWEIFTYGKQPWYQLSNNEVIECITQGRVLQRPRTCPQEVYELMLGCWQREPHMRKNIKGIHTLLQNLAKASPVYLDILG
Chain of GFRα1-RET (P07949 29-1114): as the sequence (P07949 29-1114) above
Chain of GFRα1-RET (P56159 25-429 partner limits assumed): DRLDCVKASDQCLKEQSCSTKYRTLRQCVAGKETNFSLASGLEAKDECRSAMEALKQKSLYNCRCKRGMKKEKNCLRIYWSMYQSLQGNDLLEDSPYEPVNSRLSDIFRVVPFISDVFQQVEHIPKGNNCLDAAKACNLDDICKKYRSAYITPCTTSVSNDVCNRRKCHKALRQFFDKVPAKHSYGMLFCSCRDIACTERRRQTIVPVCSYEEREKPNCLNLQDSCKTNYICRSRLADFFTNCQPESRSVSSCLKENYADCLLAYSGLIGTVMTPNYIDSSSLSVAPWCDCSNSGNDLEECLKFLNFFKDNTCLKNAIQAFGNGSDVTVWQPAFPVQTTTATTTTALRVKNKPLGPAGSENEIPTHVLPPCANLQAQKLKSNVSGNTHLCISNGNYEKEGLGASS

B1: BDNF: brain-derived neurotrophic factor (protein, UniProt P23560 19-247, looked up)
Neurotrophic factor BDNF …: APMKEANIRGQGGLAYPGVRTHGTLESVNGPKAGSRGLTSLADTFEHVIEELLDEDQKVRPNEENNKDADLYTSRVMLSSQVPLEPPLLFLLEEYKNYLDAANMSMRVRRHSDPARRGELSVCDSISEWVTAADKKTAVDMSGGTVTVLEKVPVSKGQLKQYFYETKCNPMGYTKEGCRGIDKRHWNSQCRTTQSYVRALTMDSKKRIGWRFIRIDTSCVCTLTIKRGR
luciferase activity in reporter cells expressing TrkB (TrkB): increased the luciferase activity

B2: GDNF: Human recombinant glial cell line-derived neurotrophic factor (protein, UniProt P39905 78-211, looked up)
Glial cell line-derived …: SPDKQMAVLPRRERNRQAAAANPENSRGKGRRGQRGKNRGCVLTAIHLNVTDLGLGYETKEELIFRYCSGSCDAAETTYDKILKNLSRNRRLVSDKVGQACCRPIAFDDDLSFLDDNLVYHILRKHSAKRCGCI
level of RET phosphorylation (pRET band normalized to RET) (GFRα1-RET): 2.59±0.33 | RET activation (RET): did not activate RET | level of AKT phosphorylation (pAKT normalized to GAPDH) (AKT [1]): 4.77±0.43 | level of ERK phosphorylation (pERK normalized to GAPDH) (ERK [2]): 2.76±0.37 | number of TH-ir cells [3]: 384.0±35.2 | survival promoting effect [4]: did not observe survival promoting effect | number of TH-ir neurons [5]: 333.0±12.6 | number of net ipsilateral turns (120 min) (6-OHDA lesioned rats [6]): 149.1±47.9 | number of TH-ir fibers (neurite number) in the striatum (6-OHDA lesioned rats [7]): No statistically significant differences | number of TH-ir cell bodies relative to PBS (6-OHDA lesioned rats [8]): 2.5 times | number of TH-ir cell bodies relative to PG (6-OHDA lesioned rats [8]): 2.3 times | number of TH-ir cell bodies in the SNpc, Lesioned/Intact side (%) (6-OHDA lesioned rats [8]; 12 weeks post lesion, PBS 11.5±0.9, PG 12.6±0.9): 29.1±2.8 % of the intact side | number of DAT-ir cell bodies relative to PBS (6-OHDA lesioned rats [9]): 2.2 times | number of DAT-ir cell bodies in the SNpc (6-OHDA lesioned rats [9]; 12 weeks post lesion, PBS 9.5±1.4, PG 11.6±1.3): 20.7±2.9 % of the intact side | GDNF concentration at which effects on neuronal survival are detected (dopamine neurons; ref 52): 1 ng/mL | GDNF concentration at which somewhat increase in survival is already detectable (dopamine neurons; ref 52): 0.1 ng/mL | GDNF concentration at which effects on neuronal survival are detected (dopamine neurons; ref 81): 5 ng/mL | TH-ir fiber density relative to PBS treated rats (6-OHDA lesioned rats [10]): 2.6 times | density of TH-ir fibers in the striatum (6-OHDA lesioned rats [10]): 15.8±1.6 % of the intact side | DAT-ir fiber density relative to PBS (6-OHDA lesioned rats [11]): 9.9 times | density of DAT-ir fibers in the striatum (6-OHDA lesioned rats [11]; 12 weeks post lesion): 9.9±1.7 % of the intact side

B3: NRTN: human recombinant neurturin (protein, UniProt Q99748 96-197, looked up)
Neurturin: ARLGARPCGLRELEVRVSELGLGYASDETVLFRYCAGACEAAARVYDLGLRRLRQRRRLRRERVRAQPCCRPTAYEDEVSFLDAHSRYHTVHELSARECACV
level of RET phosphorylation (pRET band normalized to RET) (GFRα2-RET): 3.34±0.41 | level of AKT phosphorylation (pAKT normalized to GAPDH) (AKT [12]): 1.72±0.13 | level of ERK phosphorylation (pERK normalized to GAPDH) (ERK [13]): 1.14±0.15

Reference: article PMC8461720 (Journal of Parkinson's Disease, 2021)
